This assay deals with T1, RNF31 UBA domain (Homo sapiens, UniProt Q96EP0).
T1 construct: RNF31 UBA domain protein (residues 480-639) with N-terminal Thioredoxin-TEV-6×his-yBBr-3C tags; Thioredoxin (N, cleaved yes); made in house; host or cells: E. coli BL21 (DE3) pLysS
T1 sequence (Q96EP0 480-639): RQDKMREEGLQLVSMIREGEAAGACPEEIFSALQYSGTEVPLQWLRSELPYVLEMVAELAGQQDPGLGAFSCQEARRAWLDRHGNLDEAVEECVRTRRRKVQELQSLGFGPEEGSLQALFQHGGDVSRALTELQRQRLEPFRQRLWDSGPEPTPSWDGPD
Put plainly: Phage Library Screening with NGS, RNF31 UBA domain. The conditions noted are these: for Phage library screen NGS readout, Target Concentration 10 / Phage library screen NGS readout, Target Concentration 30 / Phage library screen NGS readout, Target Concentration 100 / Phage library screen NGS readout, Target Concentration 300 / Phage library screen NGS readout, Target Concentration 1000: RNF31 UBA domain cluster C46; for Phage library screen NGS readout, BLANK: cluster C46; for phage screen NGS read-out at Target Concentration 10 / phage screen NGS read-out at Target Concentration 30 / phage screen NGS read-out at Target Concentration 100 / phage screen NGS read-out at Target Concentration 300: no competitor. Format: binding.

The mark [1] stands for this setting: target concentration 1000, first column.
Setting [2] is: target concentration 1000, second column.

As to DPAEQRCLSAAVYCAWH, the “Phage library screen NGS readout, Target Concentration 10” value is given as 1; the “Phage library screen NGS readout, Target Concentration 30” value was 3; the “Phage library screen NGS readout, Target Concentration 100” value was 16; the “Phage library screen NGS readout, Target Concentration 300” value is given as 18. Moreover, the “Phage library screen NGS readout, Target Concentration 1000” value under setting [1] worked out at 36. Also, the “Phage library screen NGS readout, Target Concentration 1000” value under setting [2] was determined as 26. Besides, where the note is “column 1 of 5”, the “Phage library screen NGS readout, BLANK” value is listed as 0. Besides, where the note is “column 2 of 5”, the “Phage library screen NGS readout, BLANK” value worked out at 1. Besides, the “Phage library screen NGS readout, BLANK” value (column 3 of 5) stood at 1. In addition, the “Phage library screen NGS readout, BLANK” value (column 4 of 5) turned out to be 0. Also, the “Phage library screen NGS readout, BLANK” value (column 5 of 5) came out at 0.

For DPAEWICEMAAHNCLYM, the “phage screen NGS read-out at Target Concentration 10” value is listed as 0, the “phage screen NGS read-out at Target Concentration 30” value turned out to be 1, the “phage screen NGS read-out at Target Concentration 100” value is recorded as 1 and the “phage screen NGS read-out at Target Concentration 300” value was 1.

“DPAEWICRMAAMNCLYQ (Ac-DPAEWICRMAAMNCLYQ-NH2; not fully specified (bridges); cysteine pairing not given here)”: the “phage screen NGS read-out at Target Concentration 10” value is 0, the “phage screen NGS read-out at Target Concentration 30” value worked out at 0, the “phage screen NGS read-out at Target Concentration 100” value amounted to 4 and the “phage screen NGS read-out at Target Concentration 300” value worked out at 10.

Regarding DPAEWLCQMAAHNCIYL, the “phage screen NGS read-out at Target Concentration 10” value is reported as 0, the “phage screen NGS read-out at Target Concentration 30” value is 1, the “phage screen NGS read-out at Target Concentration 100” value is 2 and the “phage screen NGS read-out at Target Concentration 300” value is given as 13.

As for DPAEYHCDAAAVWCYLM, the “phage screen NGS read-out at Target Concentration 10” value is 0, the “phage screen NGS read-out at Target Concentration 30” value was determined as 0, the “phage screen NGS read-out at Target Concentration 100” value is recorded as 2 and the “phage screen NGS read-out at Target Concentration 300” value came out at 19.

Take DPAFFTCVYAAVTCEMT: the “phage screen NGS read-out at Target Concentration 10” value was determined as 0, the “phage screen NGS read-out at Target Concentration 30” value stood at 0, the “phage screen NGS read-out at Target Concentration 100” value is on record as 0 and the “phage screen NGS read-out at Target Concentration 300” value is given as 3.

Turning to DPAFSACVYAAYMCNQD, the “phage screen NGS read-out at Target Concentration 10” value amounted to 0, the “phage screen NGS read-out at Target Concentration 30” value stood at 0, the “phage screen NGS read-out at Target Concentration 100” value was found to be 1 and the “phage screen NGS read-out at Target Concentration 300” value came out at 4.

Turning to DPAFSECVYAAFSCSWI, the “phage screen NGS read-out at Target Concentration 10” value turned out to be 1, the “phage screen NGS read-out at Target Concentration 30” value is 2, the “phage screen NGS read-out at Target Concentration 100” value is 3 and the “phage screen NGS read-out at Target Concentration 300” value amounted to 9.

As to DPAFSECVYAAIYCVHS, the “phage screen NGS read-out at Target Concentration 10” value amounted to 0, the “phage screen NGS read-out at Target Concentration 30” value turned out to be 0, the “phage screen NGS read-out at Target Concentration 100” value was 0 and the “phage screen NGS read-out at Target Concentration 300” value worked out at 7.

Consider DPAFSECVYAATMCLNH, for which the “phage screen NGS read-out at Target Concentration 10” value worked out at 2, the “phage screen NGS read-out at Target Concentration 30” value was found to be 0, the “phage screen NGS read-out at Target Concentration 100” value stood at 1 and the “phage screen NGS read-out at Target Concentration 300” value was 1.

For DPAFSLCVYAALFCEQQ, the “phage screen NGS read-out at Target Concentration 10” value was 0, the “phage screen NGS read-out at Target Concentration 30” value amounted to 0, the “phage screen NGS read-out at Target Concentration 100” value was 8 and the “phage screen NGS read-out at Target Concentration 300” value came to 20.

Turning to DPAFSLCVYAAVECDHA, the “phage screen NGS read-out at Target Concentration 10” value was found to be 0, the “phage screen NGS read-out at Target Concentration 30” value is 0, the “phage screen NGS read-out at Target Concentration 100” value is 0 and the “phage screen NGS read-out at Target Concentration 300” value stood at 1.

In the case of DPAFSMCVYAAVTCVST, the “phage screen NGS read-out at Target Concentration 10” value is reported as 0, the “phage screen NGS read-out at Target Concentration 30” value is 0, the “phage screen NGS read-out at Target Concentration 100” value came out at 0 and the “phage screen NGS read-out at Target Concentration 300” value is reported as 4.

For DPAFSQCIYAAFQCDMQ, the “phage screen NGS read-out at Target Concentration 10” value was 0, the “phage screen NGS read-out at Target Concentration 30” value was determined as 0, the “phage screen NGS read-out at Target Concentration 100” value is listed as 0 and the “phage screen NGS read-out at Target Concentration 300” value was 2.

For DPAFSQCVYAAFFCREI, the “phage screen NGS read-out at Target Concentration 10” value worked out at 1, the “phage screen NGS read-out at Target Concentration 30” value was determined as 0, the “phage screen NGS read-out at Target Concentration 100” value is listed as 2 and the “phage screen NGS read-out at Target Concentration 300” value amounted to 20.

As to DPAFSQCVYAAVVCEVQ, the “phage screen NGS read-out at Target Concentration 10” value was determined as 2, the “phage screen NGS read-out at Target Concentration 30” value is 0, the “phage screen NGS read-out at Target Concentration 100” value is 11 and the “phage screen NGS read-out at Target Concentration 300” value is 55.

For DPAFSQCVYAAWHCESL, the “phage screen NGS read-out at Target Concentration 10” value is reported as 1, the “phage screen NGS read-out at Target Concentration 30” value is reported as 0, the “phage screen NGS read-out at Target Concentration 100” value worked out at 2 and the “phage screen NGS read-out at Target Concentration 300” value was found to be 7.

DPAFSRCVYAAFTCQTF: the “phage screen NGS read-out at Target Concentration 10” value stood at 0, the “phage screen NGS read-out at Target Concentration 30” value came to 0, the “phage screen NGS read-out at Target Concentration 100” value was 1 and the “phage screen NGS read-out at Target Concentration 300” value was found to be 10.

With DPAFSRCVYAAVACEDH, the “phage screen NGS read-out at Target Concentration 10” value is on record as 0, the “phage screen NGS read-out at Target Concentration 30” value came out at 1, the “phage screen NGS read-out at Target Concentration 100” value is 3 and the “phage screen NGS read-out at Target Concentration 300” value came out at 31.

For DPAFSTCIYAAVMCMDQ, the “phage screen NGS read-out at Target Concentration 10” value is 0, the “phage screen NGS read-out at Target Concentration 30” value is reported as 0, the “phage screen NGS read-out at Target Concentration 100” value is listed as 3 and the “phage screen NGS read-out at Target Concentration 300” value amounted to 19.

DPAFSTCVYAAIICNDT: the “phage screen NGS read-out at Target Concentration 10” value was 0, the “phage screen NGS read-out at Target Concentration 30” value is listed as 0, the “phage screen NGS read-out at Target Concentration 100” value is recorded as 7 and the “phage screen NGS read-out at Target Concentration 300” value was 29.

For DPAFSTCVYAAVFCQNT, the “phage screen NGS read-out at Target Concentration 10” value is listed as 0, the “phage screen NGS read-out at Target Concentration 30” value stood at 0, the “phage screen NGS read-out at Target Concentration 100” value is reported as 1 and the “phage screen NGS read-out at Target Concentration 300” value was 8.

With DPAFYECVYAAVTCTQF, the “phage screen NGS read-out at Target Concentration 10” value turned out to be 0, the “phage screen NGS read-out at Target Concentration 30” value was determined as 0, the “phage screen NGS read-out at Target Concentration 100” value is given as 0 and the “phage screen NGS read-out at Target Concentration 300” value is reported as 2.

As to DPAHEHCTAAASWCYIL, the “phage screen NGS read-out at Target Concentration 10” value is listed as 0, the “phage screen NGS read-out at Target Concentration 30” value is listed as 0, the “phage screen NGS read-out at Target Concentration 100” value amounted to 3 and the “phage screen NGS read-out at Target Concentration 300” value is 8.

On to DPAHEHCTSAAAWCMLL, for which the “phage screen NGS read-out at Target Concentration 10” value amounted to 0, the “phage screen NGS read-out at Target Concentration 30” value was 0, the “phage screen NGS read-out at Target Concentration 100” value was 0 and the “phage screen NGS read-out at Target Concentration 300” value was determined as 2.

Take DPAHHHCQAAAAWCWVM: the “phage screen NGS read-out at Target Concentration 10” value is 2, the “phage screen NGS read-out at Target Concentration 30” value worked out at 0, the “phage screen NGS read-out at Target Concentration 100” value is reported as 4 and the “phage screen NGS read-out at Target Concentration 300” value stood at 19.

DPAHILCEMAARNCLYN: the “phage screen NGS read-out at Target Concentration 10” value is 3, the “phage screen NGS read-out at Target Concentration 30” value was determined as 1, the “phage screen NGS read-out at Target Concentration 100” value was 1 and the “phage screen NGS read-out at Target Concentration 300” value is 1.

Take DPAHVHCQAAAQWCVLL: the “phage screen NGS read-out at Target Concentration 10” value is given as 0, the “phage screen NGS read-out at Target Concentration 30” value is given as 1, the “phage screen NGS read-out at Target Concentration 100” value came to 1 and the “phage screen NGS read-out at Target Concentration 300” value was 6.

DPAHVRCTSAALWCNIF: the “Phage library screen NGS readout, Target Concentration 10” value is reported as 0; the “Phage library screen NGS readout, Target Concentration 30” value is listed as 0; the “Phage library screen NGS readout, Target Concentration 100” value worked out at 3; the “Phage library screen NGS readout, Target Concentration 300” value is 4. For the same sequence, the “Phage library screen NGS readout, Target Concentration 1000” value under setting [1] is listed as 5. Further, under setting [2], the “Phage library screen NGS readout, Target Concentration 1000” value was found to be 7. Where the note is “column 1 of 5”, the “Phage library screen NGS readout, BLANK” value was determined as 0. In addition, the “Phage library screen NGS readout, BLANK” value (column 2 of 5) is reported as 0. Also, the “Phage library screen NGS readout, BLANK” value (column 3 of 5) was found to be 0. For the same sequence, the “Phage library screen NGS readout, BLANK” value (column 4 of 5) was found to be 0. In addition, the “Phage library screen NGS readout, BLANK” value (column 5 of 5) is listed as 0.

Consider DPAITHCTAAAMWCHLL, for which the “phage screen NGS read-out at Target Concentration 10” value is recorded as 1, the “phage screen NGS read-out at Target Concentration 30” value was determined as 0, the “phage screen NGS read-out at Target Concentration 100” value worked out at 9 and the “phage screen NGS read-out at Target Concentration 300” value was 80.

Take DPALQHCAAAASWCWLM: the “phage screen NGS read-out at Target Concentration 10” value was found to be 1, the “phage screen NGS read-out at Target Concentration 30” value came to 2, the “phage screen NGS read-out at Target Concentration 100” value worked out at 4 and the “phage screen NGS read-out at Target Concentration 300” value worked out at 20.

Values taken from patent US20240376151A1, “STAPLED PEPTIDES AND METHODS THEREOF” (FOG PHARMACEUTICALS, INC., priority 2022, published 2024).
